Here are results for one substance from paper PMC6036645.

This experiment addresses Leptospira interrogans thermolysin encoded by LIC13322, prothermolysin fragment PepSY-M4 (74 kDa) (Leptospira interrogans). Nature of the experiment: SEC. A general note: SEC sorts molecules by how far they enter the pores of the column.

Take “Leptospira interrogans thermolysin encoded by LIC13322, prothermolysin fragment PepSY-M4 (74 kDa) (enzyme)”: the stoichiometry N (as a rule, the number of molecules, sites or subunits per partner or assembly) was 2.
